Laboratory results from the Human Domainome abundance scans (Beltran et al. 2025).
± gives the uncertainty stated by the source.

B1: Far upstream element-binding protein 1, residues 184 to 257; numbered along this chain, Q96AE4 (parent)
chain: GNAVQEIMIPASKAGLVIGKGGETIKQLQERAGVKMVMIQDGPQNTGADKPLRITGDPYKVQQAKEMVLELIRD

Variants of: B1
Assay: abundance fitness (aPCA) (normalised: wild type 0, dead -1); higher = more abundant; growth selection in yeast, the domain comes from the species named
Details: Homo sapiens

Variant | abundance fitness
V17E | -0.503 ± 0.04
V17Q | -0.703 ± 0.05
V17C | -0.272 ± 0.046
V17N | -0.594 ± 0.073
V17W | -0.294 ± 0.036
K26P | -0.447 ± 0.04
K26H | -0.198 ± 0.057
K26T | -0.066 ± 0.035
K26V | -0.157 ± 0.034
K26N | -0.09 ± 0.053
K26G | -0.098 ± 0.027
K26R | -0.021 ± 0.027
Q29H | -0.557 ± 0.062
Q29A | -0.018 ± 0.032
Q29S | -0.029 ± 0.031
Q29V | -0.351 ± 0.037
L71D | -0.389 ± 0.046
L71V | -0.01 ± 0.03
L71R | -0.087 ± 0.027
L71W | -0.189 ± 0.033
L71G | -0.282 ± 0.027
L71H | -0.102 ± 0.051
L71M | -0.031 ± 0.04
G22T | -0.29 ± 0.042

Variant | abundance fitness
G56H | -1.09 ± 0.13
G56W | -1.22 ± 0.077
G56R | -1.04 ± 0.044
G56D | -0.803 ± 0.092
M36P | -0.789 ± 0.049
M36H | -0.81 ± 0.093
M36Q | -0.656 ± 0.05
D57F | -0.285 ± 0.059
D57Y | -0.208 ± 0.047
D57L | -0.119 ± 0.031
D57A | -0.017 ± 0.029
I25C | -0.267 ± 0.049
I25D | -0.359 ± 0.051
I25E | -0.638 ± 0.047
I25R | -0.316 ± 0.029
M8L | -0.075 ± 0.03
M8T | -0.106 ± 0.038
M8H | -0.102 ± 0.052
T55L | -0.05 ± 0.032
T55N | -0.138 ± 0.042
T55D | -0.111 ± 0.045
T55K | -0.165 ± 0.034
T55R | -0.152 ± 0.027
A64N | -0.772 ± 0.073

Variant | abundance fitness
A64Y | -0.98 ± 0.11
A64V | -0.262 ± 0.032
K65Y | -0.11 ± 0.054
K65C | -0.097 ± 0.04
K65T | -0.057 ± 0.034
K65M | -0.07 ± 0.038
K65G | -0.086 ± 0.028
K65A | -0.064 ± 0.032
K65H | -0.056 ± 0.047
V61K | -0.847 ± 0.06
V61Q | -0.528 ± 0.046
V61S | -0.427 ± 0.033
V4T | 0.029 ± 0.036
V4F | 0.112 ± 0.047
V4N | 0.073 ± 0.048
V4S | -0.18 ± 0.033
V4R | -0.053 ± 0.026
V4Q | 0.009 ± 0.04
V4M | 0.11 ± 0.037
Q5F | -0.063 ± 0.051
Q5I | 0.014 ± 0.05
Q44G | 0.007 ± 0.027
Q44L | -0.055 ± 0.032
Q44V | -0.067 ± 0.03

Variant | abundance fitness
T24E | -0.08 ± 0.038
T24S | -0.078 ± 0.031
T24D | -0.208 ± 0.048
T24H | -0.029 ± 0.049
I39N | 0.014 ± 0.051
I39G | -0.028 ± 0.027
Q62F | -0.105 ± 0.048
Q62Y | -0.04 ± 0.051
Q62R | -0.059 ± 0.026
Q62M | -0.075 ± 0.041
Q40F | -0.027 ± 0.052
Q40T | -0.059 ± 0.036
Q40E | -0.067 ± 0.037
Q40Y | -0.049 ± 0.061
Q40L | -0.076 ± 0.031
L16G | -0.191 ± 0.029
L16A | -0.028 ± 0.033
L16D | -0.053 ± 0.046
L16E | -0.06 ± 0.036
L16W | -0.068 ± 0.033
L16C | -0.147 ± 0.043
L16I | -0.048 ± 0.055
D74G | 0.008 ± 0.034
D74A | -0.089 ± 0.039

Variant | abundance fitness
D74E | -0.058 ± 0.052
D74L | -0.277 ± 0.047
D74N | -0.114 ± 0.048
D74W | -0.327 ± 0.076
D41A | -0.077 ± 0.031
D41V | -0.023 ± 0.031
D41C | -0.034 ± 0.047
D41Q | -0.006 ± 0.041
M38C | -0.166 ± 0.044
L69D | 0.016 ± 0.044
L69H | -0.073 ± 0.047
L69S | -0.015 ± 0.03
L69T | -0.021 ± 0.035
L69V | -0.082 ± 0.032
L69G | -0.018 ± 0.028
A11D | -0.014 ± 0.045
A11H | -0.133 ± 0.052
A11R | -0.1 ± 0.027
A11E | -0.098 ± 0.035
R53C | -0.111 ± 0.048
R53T | 0.008 ± 0.047
R53G | -0.52 ± 0.03
R53D | -0.616 ± 0.063
R53K | -0.025 ± 0.041

Variant | abundance fitness
R53Q | -0.009 ± 0.038
R53A | -0.14 ± 0.033
P10S | -0.367 ± 0.036
P10A | -0.468 ± 0.035
P10M | -0.678 ± 0.05
P10H | -0.398 ± 0.052
P10Q | -0.391 ± 0.044
P10E | -0.364 ± 0.038
K35R | -0.007 ± 0.027
K35S | -0.116 ± 0.032
K35T | -0.093 ± 0.038
K35H | 0.003 ± 0.058
Q63E | 0.006 ± 0.035
Q63V | -0.038 ± 0.031
Q63K | 0 ± 0.036
V68S | -0.425 ± 0.034
V68K | -0.41 ± 0.039
V68L | -0.154 ± 0.032
V68A | -0.221 ± 0.033
Q27H | -0.008 ± 0.044
Q27T | -0.081 ± 0.036
Q27V | -0.095 ± 0.032
Q27N | -0.012 ± 0.05
N2V | 0.121 ± 0.033

Variant | abundance fitness
N2T | 0.154 ± 0.034
N2Y | -0.124 ± 0.053
N2R | 0.032 ± 0.028
N2E | 0.176 ± 0.037
N2M | 0.201 ± 0.038
N2Q | 0.095 ± 0.04
G1V | 0.038 ± 0.034
G1D | -0.067 ± 0.042
G1K | -0.044 ± 0.068
G1N | -0.073 ± 0.076
G1F | -0.027 ± 0.074
G1L | -0.042 ± 0.049
P51A | -0.011 ± 0.033
P51M | 0.028 ± 0.041
P51L | -0.057 ± 0.03
I72K | -0.405 ± 0.043
I72H | -0.524 ± 0.06
I72Q | -0.24 ± 0.037
I72M | -0.009 ± 0.039
I18V | -0.018 ± 0.031
I18P | -0.292 ± 0.032
I18T | 0.011 ± 0.032
I18S | -0.09 ± 0.03
